# Source: US11306156
# Several values for one entry are separate records, joined by “and”; a condition that tells them apart may be missing. Identical values can stand only once.
# Experiments:
# [1] = target: D3H44 light chain Q124K_T178R, N-terminal HA or FLAG tag; assay: LCCA, L1:L2 DNA 1:3, SPR of light chain tags; competing light chain m11
# [2] = target: D3H44 light chain Q124R_T178K, N-terminal HA or FLAG tag; assay: as above
# [3] = target: D3H44 light chain Q124R_T178R, N-terminal HA or FLAG tag; assay: as above
# [4] = target: D3H44 light chain Q124E_T180E, N-terminal HA or FLAG tag; assay: LCCA, L1:L2 DNA 1:3, SPR of light chain tags; competing light chain m14
# [5] = target: D3H44 light chain Q124E_Q160E_T180E, N-terminal HA or FLAG tag; assay: LCCA, L1:L2 DNA 1:3, SPR of light chain tags; competing light chain m12
# [6] = target: D3H44 light chain Q124E_T180E, N-terminal HA or FLAG tag; assay: as above
# [7] = target: D3H44 light chain Q124E_T180E, N-terminal HA or FLAG tag; assay: LCCA, L1:L2 DNA 1:3, SPR of light chain tags; competing light chain m10
# [8] = target: D3H44 light chain Q124E_Q160E_T180E, N-terminal HA or FLAG tag; assay: LCCA, L1:L2 DNA 1:9, SPR of light chain tags; competing light chain m15
# [9] = target: D3H44 light chain Q124K_T178R, N-terminal HA or FLAG tag; assay: LCCA, L1:L2 DNA 1:9, SPR of light chain tags; competing light chain m11
# [10] = target: D3H44 light chain Q124R_T178K, N-terminal HA or FLAG tag; assay: as above
# [11] = target: D3H44 light chain Q124R_T178R, N-terminal HA or FLAG tag; assay: as above
# [12] = target: D3H44 light chain Q124R_Q160K_T178R, N-terminal HA or FLAG tag; assay: LCCA, L1:L2 DNA 1:3, SPR of light chain tags; competing light chain m13
# [13] = target: D3H44 light chain Q124R_T178R, N-terminal HA or FLAG tag; assay: as above
# [14] = target: D3H44 light chain T178R, N-terminal HA or FLAG tag; assay: as above
# [15] = target: D3H44 light chain Q124E_Q160E_T180E, N-terminal HA or FLAG tag; assay: LCCA, L1:L2 DNA 1:9, SPR of light chain tags; competing light chain m12
# [16] = target: D3H44 light chain Q124E_Q160E_T180E, N-terminal HA or FLAG tag; assay: LCCA, L1:L2 DNA 1:3, SPR of light chain tags; competing light chain m16
# [17] = target: D3H44 light chain Q124E_Q160E_T180E, N-terminal HA or FLAG tag; assay: LCCA, L1:L2 DNA 1:3, SPR of light chain tags; competing light chain m15
# [18] = target: D3H44 light chain Q124E_Q160E_T180E, N-terminal HA or FLAG tag; assay: LCCA, L1:L2 DNA 1:9, SPR of light chain tags; competing light chain m16
# [19] = target: D3H44 light chain T178R, N-terminal HA or FLAG tag; assay: LCCA, L1:L2 DNA 1:3, SPR of light chain tags; competing light chain m11
# [20] = target: D3H44 light chain Q124R_Q160K_T178R, N-terminal HA or FLAG tag; assay: LCCA, L1:L2 DNA 1:3, SPR of light chain tags; competing light chain m20
# [21] = target: D3H44 light chain Q124E_Q160E_T178E, N-terminal HA or FLAG tag; assay: LCCA, L1:L2 DNA 1:3, SPR of light chain tags; competing light chain m14
# [22] = target: D3H44 light chain Q124R_T178R, N-terminal HA or FLAG tag; assay: LCCA, L1:L2 DNA 1:9, SPR of light chain tags; competing light chain m19
# [23] = target: D3H44 light chain Q124E_S176L_T180E, N-terminal HA or FLAG tag; assay: LCCA, L1:L2 DNA 1:3, SPR of light chain tags; competing light chain m12
# [24] = target: D3H44 light chain Q124E_Q160E_T180E, N-terminal HA or FLAG tag; assay: LCCA, L1:L2 DNA 1:3, SPR of light chain tags; competing light chain m10
# [25] = target: D3H44 light chain Q124E_Q160E_T180E, N-terminal HA or FLAG tag; assay: LCCA, L1:L2 DNA 1:9, SPR of light chain tags; competing light chain m10
# [26] = target: D3H44 light chain Q124R_T178R, N-terminal HA or FLAG tag; assay: LCCA, L1:L2 DNA 1:3, SPR of light chain tags; competing light chain m19
# [27] = target: D3H44 light chain T178R, N-terminal HA or FLAG tag; assay: LCCA, L1:L2 DNA 1:9, SPR of light chain tags; competing light chain m11
# [28] = target: D3H44 light chain Q124E_S176L_T180E, N-terminal HA or FLAG tag; assay: LCCA, L1:L2 DNA 1:9, SPR of light chain tags; competing light chain m12
# [29] = target: D3H44 light chain Q124K_T178R, N-terminal HA or FLAG tag; assay: LCCA, L1:L2 DNA 1:3, SPR of light chain tags; competing light chain m13
# [30] = target: D3H44 light chain Q124E_T180E, N-terminal HA or FLAG tag; assay: LCCA, L1:L2 DNA 1:3, SPR of light chain tags; competing light chain m15
substance,measurement,setting,value
"D3H44 Fab heavy chain L143E_K145T_Q179D, C-terminal ABD2-His6 tag",H1L1:H1L2 normalized median ratio,[1],86 share of 100
same,H1L1:H1L2 normalized median scalar value ln(r1/f1),[1],1.78
same,H1L1:H1L2 normalized median ratio,[2],89 share of 100
same,H1L1:H1L2 normalized median scalar value ln(r1/f1),[2],2.08 and 2.03
same,H1L1:H1L2 normalized median ratio,[3],87 share of 100
same,H1L1:H1L2 normalized median scalar value ln(r1/f1),[3],1.9
same,H1L1:H1L2 normalized median ratio,[4],31 share of 100
same,H1L1:H1L2 normalized median ratio,[5],13 share of 100
same,H1L1:H1L2 normalized median ratio,[6],24 share of 100
same,H1L1:H1L2 normalized median ratio,[7],35 share of 100
same,H1L1:H1L2 normalized median ratio,[8],14 share of 100
same,H1L1:H1L2 normalized median ratio,[9],86 share of 100
same,H1L1:H1L2 normalized median scalar value ln(r1/f1),[9],1.84
same,H1L1:H1L2 normalized median ratio,[10],78 share of 100
same,H1L1:H1L2 normalized median scalar value ln(r1/f1),[10],1.28
same,H1L1:H1L2 normalized median ratio,[11],82 share of 100
same,H1L1:H1L2 normalized median scalar value ln(r1/f1),[11],1.55
same,H1L1:H1L2 normalized median ratio,[12],69 share of 100
same,H1L1:H1L2 normalized median scalar value ln(r1/f1),[12],0.79
same,H1L1:H1L2 normalized median ratio,[13],76 share of 100
same,H1L1:H1L2 normalized median scalar value ln(r1/f1),[13],1.14
same,H1L1:H1L2 normalized median ratio,[14],65 share of 100
same,H1L1:H1L2 normalized median scalar value ln(r1/f1),[14],0.64
same,H1L1:H1L2 normalized median ratio,[15],18 share of 100
same,H1L1:H1L2 normalized median ratio,[16],11 share of 100
same,H1L1:H1L2 normalized median ratio,[17],14 share of 100
same,H1L1:H1L2 normalized median ratio,[18],22 share of 100
"D3H44 Fab heavy chain S186K, C-terminal ABD2-His6 tag",H2L2:H2L1 normalized median ratio,[2],8 share of 100
same,H2L2:H2L1 normalized median ratio,[19],9 share of 100
same,H2L2:H2L1 normalized median ratio,[20],1 share of 100
same,H2L2:H2L1 normalized median ratio,[4],97 share of 100
same,H2L2:H2L1 normalized median ratio,[21],99 share of 100
same,H2L2:H2L1 normalized median ratio,[22],9 share of 100
same,H2L2:H2L1 normalized median ratio,[6],94 share of 100
same,H2L2:H2L1 normalized median ratio,[23],96 share of 100
same,H2L2:H2L1 normalized median ratio,[24],91 share of 100
same,H2L2:H2L1 normalized median ratio,[7],96 share of 100
same,H2L2:H2L1 normalized median ratio,[25],87 share of 100
same,H2L2:H2L1 normalized median ratio,[26],4 share of 100
same,H2L2:H2L1 normalized median ratio,[27],13 share of 100
same,H2L2:H2L1 normalized median ratio,[12],3 share of 100
same,H2L2:H2L1 normalized median ratio,[13],6 share of 100
same,H2L2:H2L1 normalized median ratio,[14],4 share of 100
same,H2L2:H2L1 normalized median ratio,[28],91 share of 100
same,H2L2:H2L1 normalized median ratio,[16],92 share of 100
"D3H44 Fab heavy chain L143E_K145T_Q179E, C-terminal ABD2-His6 tag",H1L1:H1L2 normalized median ratio,[2],83 share of 100 and 33 share of 100
same,H1L1:H1L2 normalized median scalar value ln(r1/f1),[2],1.62
same,H1L1:H1L2 normalized median ratio,[3],91 share of 100
same,H1L1:H1L2 normalized median scalar value ln(r1/f1),[3],2.27
same,H1L1:H1L2 normalized median ratio,[4],27 share of 100
same,H1L1:H1L2 normalized median ratio,[5],9 share of 100
same,H1L1:H1L2 normalized median ratio,[7],40 share of 100
same,H1L1:H1L2 normalized median ratio,[11],78 share of 100
same,H1L1:H1L2 normalized median scalar value ln(r1/f1),[11],1.29
same,H1L1:H1L2 normalized median ratio,[12],73 share of 100
same,H1L1:H1L2 normalized median scalar value ln(r1/f1),[12],1
same,H1L1:H1L2 normalized median ratio,[29],70 share of 100
same,H1L1:H1L2 normalized median scalar value ln(r1/f1),[29],0.84
same,H1L1:H1L2 normalized median ratio,[14],60 share of 100
same,H1L1:H1L2 normalized median scalar value ln(r1/f1),[14],0.41
same,H1L1:H1L2 normalized median ratio,[15],22 share of 100
same,H1L1:H1L2 normalized median ratio,[16],17 share of 100
same,H1L1:H1L2 normalized median ratio,[30],30 share of 100
